Reference: patent US20030108935, “Probing binding interactions between molecules and nucleic acids by unzipping a nucleic acid molecule double helix” (published 2003)

Legend:
[1] = system: EcoRI restriction endonuclease; details: highest Ka measured in this report; optical-trap unzipping (UFAPA); 10 mM HEPES pH 7.6, 1 mM EDTA, no Mg2+, 106-262 mM Na+, 23 C; Ka decreases with Na+ …
[2] = biological target: T1, BsoBI restriction endonuclease (UniProt P70985 P70985:2-323); assay: optical-trap unzipping, dynamic force spectroscopy: f_beta 4.04 +/- 0.14 pN, ln(toff in s) 4.98 +/- 0.27, N=243; BsoBI 0.7 nM, 50 mM Na phosphate pH 7.0, 50 mM; details: tags: New England BioLabs, commercial grade, used without further purification; chain copies: 2 (stated, 72 kD dimer); label: digoxigenin and biotin (via anchoring segment and insert duplex)
T1 sequence: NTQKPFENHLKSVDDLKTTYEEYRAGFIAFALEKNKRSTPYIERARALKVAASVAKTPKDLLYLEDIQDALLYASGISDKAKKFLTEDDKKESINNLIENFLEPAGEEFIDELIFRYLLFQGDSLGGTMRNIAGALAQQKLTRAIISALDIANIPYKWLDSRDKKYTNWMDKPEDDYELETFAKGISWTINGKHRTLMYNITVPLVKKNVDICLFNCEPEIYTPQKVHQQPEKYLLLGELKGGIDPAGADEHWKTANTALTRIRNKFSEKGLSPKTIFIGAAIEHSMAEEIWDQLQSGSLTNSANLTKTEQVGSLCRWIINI
Method: (§1) Unzipping Buffer Conditions. Experiments with BsoBI and XhoI were performed at room temperature (23° C.) in a buffer containing 50 mM sodium phosphate buffer pH 7.0, 50 mM NaCl, 0.02% Tween-20, 10 mM EDTA. To facilitate better comparisons of future EcoRI results with previously reported results, mapping and equilibrium constants studies of EcoRI were performed at room temperature (23° C.) in a buffer containing 10 mM HEPES, pH 7.6, 1 mM EDTA, 50 μM DTT, 100 μg/ml BSA, 500 μg/ml Blotting Grade Blocker (Bio-Rad) and NaCl added to produce total Na+concentrations of 106 to 262 mM. […] The Hepes buffer is similar to the buffer used by Ha et al., “Role of the Hydrophobic Effect in Stability of Site-Specific Protein-DNA Complexes,” J. Mol. Biol. 209:801-816 (1989), the entire disclosure of which is hereby incorporated by reference in its entirety, for temperature dependence studies of EcoRI binding to its site on pBR322. Because of the tendency for EcoRI to aggregate at lower ionic strengths (Jen-Jacobson et al., “Coordinate Ion Pair Formation Between EcoRI Endonuclease and DNA,” J. Biol. Chem. 258:14638-14646 (1983), the entire disclosure of which is hereby incorporated by reference in its entirety), the EcoRI mapping data were taken at 131 mM total Na+ concentration. […]

[3] = biological target: T1, BsoBI restriction endonuclease; assay: optical-trap unzipping, dynamic force spectroscopy: f_beta 4.36 +/- 0.53 pN, ln(toff in s) 7.6 +/- 1.1, N=51; BsoBI 0.7 nM, 50 mM Na phosphate pH 7.0, 50 mM NaCl, 10 mM EDTA, no Mg2+, 23 C; details: tags: New England BioLabs, commercial grade, used without further purification; chain copies: 2 (stated, 72 kD dimer); label: digoxigenin and biotin (via anchoring segment and insert duplex)
Method: as §1

Molecule: pBR322 EarI large fragment unzipping segment with single EcoRI site
- Ka [1]: 1e+11 M⁻¹

B1: BsoBI alpha site (dsDNA)
DNA 1: TTCCTCGGGAAT
DNA 2: ATTCCCGAGGAA
- binding result [2]: binds

B2: beta site (BsoBI/XhoI) (dsDNA)
DNA 1: AAACTCGAGAGA
DNA 2: TCTCTCGAGTTT
- binding result [3]: binds
